Experimental data: PMC12670400, “LEKTI-Grafted Sunflower Trypsin Inhibitor: A Potential Therapeutic for Skin Diseases” (Journal of Medicinal Chemistry, 2025)
Bridge positions count the residues as written; N and C are the ends. Ends that are not written are not given here.

Key:
[1] = target: T1, KLK7 (Homo sapiens, UniProt P49862); set-up: purchased R&D Systems 2624-SE; details: read-out: Ki against KLK7; cited from earlier work
Target sequence in this assay (P49862 30-253): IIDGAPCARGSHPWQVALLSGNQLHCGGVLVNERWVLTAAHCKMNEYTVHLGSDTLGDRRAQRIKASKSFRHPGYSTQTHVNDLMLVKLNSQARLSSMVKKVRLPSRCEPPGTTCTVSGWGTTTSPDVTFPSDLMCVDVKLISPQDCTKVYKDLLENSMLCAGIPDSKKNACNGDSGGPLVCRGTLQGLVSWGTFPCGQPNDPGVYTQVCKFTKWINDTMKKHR

[2] = system: KLK5-mediated PAR2 activation; test: PAR2-dependent intracellular calcium mobilization assay in N/TERT keratinocytes; assay type: cell-based; details: peptide 400 μM
Excerpt: PAR2, a member of the G-protein-coupled receptor family expressed in keratinocytes, is a known downstream target of KLK5. KLK5 activates PAR2 by cleaving its extracellular N-terminal domain. This cleavage exposes a tethered ligand, which binds PAR2 intramolecularly to activate the receptor. , Activated PAR2 causes protein kinase C (PKC) and inositol 1,4,5-trisphosphate (IP3) activation, leading to calcium release from the endoplasmic reticulum, known as intracellular calcium mobilization. […] This delay is attributed to the time required for KLK5 to enzymatically cleave the extracellular N-terminal domain of PAR2, thereby exposing the tethered ligand sequence necessary to initiate receptor activation and downstream calcium signaling. […] This observation confirmed PAR2-dependent calcium mobilization and that rKLK5 could initiate PAR2 activation. The inhibition potential of lead 7 on KLK5 activity was then assessed by using this assay. rKLK5 was preincubated with lead 7 at concentrations of 2.5, 5, 20, or 40 μM for one hour before being applied to cultured keratinocytes, after which PAR2-dependent calcium mobilization was measured.
For Ki calculation, Km values for KLK5 and its substrate Boc-VPR-AMC were previously reported in the literature 8, 9, allowing the conversion from IC50 to Ki using the Cheng Prusoff equation10 Kᵢ = IC₅₀ / (1 + [S]/Kₘ) for single-site competitive binding.
Cell lines and tissue cultures
Keratinocytes isolated from the skin in a patient with genetic skin disease Netherton Syndrome (NS19) and in healthy donors (C42, C46, P8) were used in the study. […]
The immortalized keratinocyte cell line (N/TERT)13, 14 were used for the assay. […] The cells were counted, and 100 µL of the suspension, at a density of 600,000 cells/mL, was seeded into each well of a 96 -well microplate. […]
calcium signalling. […] Fluorescence excitation was set at 485 nm, and emission was recorded at 520 nm using SpectraMax® i3x plate reader. […]

[3] = target: T2, Kallikrein-related peptidase 5 (KLK5) (UniProt Q9Y337 23-293); test: enzyme inhibition assay (fluorogenic substrate); inhibition of KLK5 activity by the peptide, fluorogenic substrate Boc-VPR-AMC, n = 3; conditions in the Supporting Information; details: both partners purified
[4] = target: T3, KLK8 (UniProt O60259 33-260); test: enzyme inhibition assay (fluorogenic substrate); selectivity: inhibition of KLK7, KLK8 or KLK14 activity by the peptide, n = 3; substrates and conditions in the Supporting Information; details: both partners purified
T3 construct: Kallikrein 8 (KLK8); construct and source are in the Supporting Information
T3 sequence (looked up): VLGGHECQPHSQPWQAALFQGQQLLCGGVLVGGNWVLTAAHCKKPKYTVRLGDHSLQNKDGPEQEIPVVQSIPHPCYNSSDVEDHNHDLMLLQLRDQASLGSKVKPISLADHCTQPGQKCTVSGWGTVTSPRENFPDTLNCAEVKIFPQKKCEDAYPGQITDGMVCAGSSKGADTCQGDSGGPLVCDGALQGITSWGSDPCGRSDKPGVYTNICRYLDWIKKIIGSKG

[5] = target: T4, KLK14 (UniProt Q9P0G3); test: as above
T4 sequence (Q9P0G3 41-267, species assumed, looked up): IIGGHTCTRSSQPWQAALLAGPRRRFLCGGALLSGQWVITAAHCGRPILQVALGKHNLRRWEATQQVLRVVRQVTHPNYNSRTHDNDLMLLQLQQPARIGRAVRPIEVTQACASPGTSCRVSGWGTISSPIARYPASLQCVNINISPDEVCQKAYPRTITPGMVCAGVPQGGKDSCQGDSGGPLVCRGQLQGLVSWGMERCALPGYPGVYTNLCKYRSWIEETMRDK

[6] = target: T1, KLK7; test: as above
[7] = target: T2, Kallikrein-related peptidase 5 (KLK5); test: enzyme inhibition assay (fluorogenic substrate); inhibition of KLK5 activity by the peptide, fluorogenic substrate Boc-VPR-AMC, n = 3; conditions in the Supporting Information; details: both partners purified; remark: listed apart in the source
[8] = target: T5, KLK5 (Homo sapiens, UniProt Q9Y337); details: prior findings, reference not given; read-out: Ki against KLK5; cited from earlier work
T5 construct: purchased R&D Systems 1108-SE
T5 sequence (Q9Y337 23-293): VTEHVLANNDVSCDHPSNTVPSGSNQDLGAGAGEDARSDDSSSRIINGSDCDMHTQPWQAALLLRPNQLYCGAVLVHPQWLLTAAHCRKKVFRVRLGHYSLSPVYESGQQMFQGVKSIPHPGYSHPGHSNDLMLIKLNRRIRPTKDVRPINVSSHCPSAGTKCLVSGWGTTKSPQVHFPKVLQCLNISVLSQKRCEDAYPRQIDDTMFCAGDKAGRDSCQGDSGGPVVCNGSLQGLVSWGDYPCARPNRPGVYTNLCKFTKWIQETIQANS

α1-antichymotrypsin [reference compound]
Ki [1]: 500 nM

SLIGRL-NH2 [AP, reference compound]
calcium mobilization on stimulation of keratinocytes [2]: PAR2-dependent calcium mobilization was observed

LRGILS-NH2 [R-AP, reference compound]
calcium mobilization on stimulation of keratinocytes [2]: did not induce calcium mobilization

B1: LEKTI-grafted SFTI analogue, lead 7 (peptide)
peptide: cyclo(GFCTRSNPPECWPN)
modifications: disulfide 3-11 (inferred)
notes: SFTI scaffold grafted with residues of a LEKTI domain, glutamic acid at position 10; source: synthetic peptide (hydrazide peptide, cyclised via native chemical ligation, oxidised, RP-HPLC purified)
IC50 [3]: 14 ± 4 nM
IC50 [4]: > 1000 nM
IC50 [5]: > 1000 nM
IC50 [6]: > 1000 nM
Ki [7]: 11 nM

B2: SFTI analogue 8 (peptide)
peptide: cyclo(GFCHRSYPPECWPN)
modifications: disulfide 3-11 (inferred)
notes: SFTI scaffold grafted with residues of a LEKTI or LEKTI-like domain, glutamic acid at position 10; also called compound 8; source: synthetic peptide (hydrazide peptide, cyclised via native chemical ligation, oxidised, RP-HPLC purified)
IC50 [3]: 8.6 ± 2 nM
IC50 [4]: > 1000 nM
IC50 [6]: > 1000 nM
Ki [7]: 8 nM

B3: LEKTI Domain 5: domain 5 of the endogenous serine protease inhibitor LEKTI (protein)
chain: REIVKLCSQYQNQAKNGILFCTRENDPIRGPDGKMHGNLCSMCQAYFQAENEEKKKAEARAR
modifications: Kazal-type disulfides
Ki [8]: 32.8 nM

B4: LEKTI Domain 6: domain 6 of the endogenous serine protease inhibitor LEKTI (protein)
chain: ESGKATSYAELCNEYRKLVRNGKLACTRENDPIQGPDGKVHGNTCSMCEVFFQAEEEEKKKKEGESRN
modifications: Kazal-type disulfides
Ki [8]: 83.3 nM
